Laboratory results from patent US20220372155A1 (LYVGEN BIOPHARMA, published 2022).

B1: Ly614 (bispecific antibody, human IgG1, kappa)
heavy: QVQLQQPGAELVKPGASVKLSCKASGYTFTSYWMHWVKQRPGQGLEWIGMIHPNSGGTNYNEKFKGKGTLTVDKSSSTAYMQLSSLTSDDSAVYYCVTSQATWFAYWGQGTLVTVSAASTKGPSVFPLAPSSKSTSGGTAALGCLVKDYFPEPVTVSWNSGALTSGVHTFPAVLQSSGLYSLSSVVTVPSSSLGTQTYICNVNHKPSNTKVDKKVEPKSCDKTHTCPPCPAPELLGPSVFLFPPKPKDTLMISRTPEVTCVVVDVSHEDPEVKFNWYVDGVEVHNAKTKPREEQYNSTYRVVSVLTVLHQDWLNGKEYKCKVSNKALPAPIEKTISKAKGQPREPQVYTLPPSREEMTKNQVSLTCLVKGFYPSDIAVEWESNGQPENNYKTTPPVLDSDGSFFLYSKLTVDKSRWQQGNVFSCSVMHEALHNHYTQKSLSLSPGGGGGSGGGGSGGGGSGGGGSDIQMTQSPSSLSASVGDRVTITCKASQNIYIYLNWYQQKPGKAPKLLIYNTNNLQTGVPSRFSGSGSGTDFTLTISSLQPEDFATYYCLQHSSRRTFGGGTKVEIKGGGGSGGGGSGGGGSGGGGSQVQLVESGGGLVQPGGSLKLSCATSGFNFNDYFMNWVRQASGKGLEWVGQIRNKNYNYATYYTESLEGRVTISRDDSKNTAYLQMNSLKTEDTAVYYCTSYYYDGFADYFDYWGQGTTVTVSS
light: ENVLTQSPAIMSVSPGEKVTMTCRASSSVSSSYLHWYQQKSGASPKFWIYSTSNLASGVPARFSGSGSGTSYSLTISSVEAEDAATYYCQHYSGYPLTFGAGTKLELRRTVAAPSVFIFPPSDEQLKSGTASVVCLLNNFYPREAKVQWKVDNALQSGNSQESVTEQDSKDSTYSLSSTLTLSKADYEKHKVYACEVTHQGLSSPVTKSFNRGEC
notes: Ly387 HC (IgG1 mutated Fc)-TM740 scFv VL-VH + Ly387 LC
B2: Ly616 (bispecific antibody, human IgG1, kappa)
heavy: QVQLQQPGAELVKPGASVKLSCKASGYTFTSYWMHWVKQRPGQGLEWIGMIHPNSGGTNYNEKFKGKGTLTVDKSSSTAYMQLSSLTSDDSAVYYCVTSQATWFAYWGQGTLVTVSAASTKGPSVFPLAPSSKSTSGGTAALGCLVKDYFPEPVTVSWNSGALTSGVHTFPAVLQSSGLYSLSSVVTVPSSSLGTQTYICNVNHKPSNTKVDKKVEPKSCDKTHTCPPCPAPELLGPSVFLFPPKPKDTLMISRTPEVTCVVVDVSHEDPEVKFNWYVDGVEVHNAKTKPREEQYNSTYRVVSVLTVLHQDWLNGKEYKCKVSNKALPAPIEKTISKAKGQPREPQVYTLPPSREEMTKNQVSLTCLVKGFYPSDIAVEWESNGQPENNYKTTPPVLDSDGSFFLYSKLTVDKSRWQQGNVFSCSVMHEALHNHYTQKSLSLSPGGGGGSGGGGSGGGGSGGGGSDIQMTQSPSSLSASVGDRVTITCLASEDISNDLAWYQQKPGKAPKLLIYFVDRLLDGVPSRFSGSGSGTDFTLTISSLQPEDFATYYCQQSYKYPPTFGQGTKLEIKGGGGSGGGGSGGGGSGGGGSEVQLVESGGGLVQPGGSLRLSCAASGFTFTNYGLHWVRQAPGKGLEWVSSISPSGGVTYYRDSVKGRFTISRDNSKNTLYLQMNSLRAEDTAVYYCAKPFLGWGGANWIAHWGQGTLVTVSS
light: B1 light
notes: Ly387 HC (IgG1 mutated Fc)-TM559 scFv VL-VH + Ly387 LC
B3: Ly615 (bispecific antibody, human IgG1, kappa)
heavy: QVQLQQPGAELVKPGASVKLSCKASGYTFTSYWMHWVKQRPGQGLEWIGMIHPNSGGTNYNEKFKGKGTLTVDKSSSTAYMQLSSLTSDDSAVYYCVTSQATWFAYWGQGTLVTVSAASTKGPSVFPLAPSSKSTSGGTAALGCLVKDYFPEPVTVSWNSGALTSGVHTFPAVLQSSGLYSLSSVVTVPSSSLGTQTYICNVNHKPSNTKVDKKVEPKSCDKTHTCPPCPAPELLGPSVFLFPPKPKDTLMISRTPEVTCVVVDVSHEDPEVKFNWYVDGVEVHNAKTKPREEQYNSTYRVVSVLTVLHQDWLNGKEYKCKVSNKALPAPIEKTISKAKGQPREPQVYTLPPSREEMTKNQVSLTCLVKGFYPSDIAVEWESNGQPENNYKTTPPVLDSDGSFFLYSKLTVDKSRWQQGNVFSCSVMHEALHNHYTQKSLSLSPGGGGGSGGGGSGGGGSGGGGSQVQLVESGGGLVQPGGSLKLSCATSGFNFNDYFMNWVRQASGKGLEWVGQIRNKNYNYATYYTESLEGRVTISRDDSKNTAYLQMNSLKTEDTAVYYCTSYYYDGFADYFDYWGQGTTVTVSSGGGGSGGGGSGGGGSGGGGSDIQMTQSPSSLSASVGDRVTITCKASQNIYIYLNWYQQKPGKAPKLLIYNTNNLQTGVPSRFSGSGSGTDFTLTISSLQPEDFATYYCLQHSSRRTFGGGTKVEIK
light: B1 light
notes: Ly387 HC (IgG1 mutated Fc)-TM740 scFv VH-VL + Ly387 LC

These binders were tested against T1, Human CD40 ECD protein (mouse IgG2a Fc tag) (human, UniProt P25942 21-193) (assay: bridging ELISA, coated B7H3-His, soluble CD40-msFc).
T1 construct: extracellular domain; also called Human CD40-msFc; human recombinant CD40; not shown: mouse IgG2a Fc tag
Protocol: Anti-B7H3/CD40 bi-specific antibodies were analyzed by ELISA for their simultaneous binding to recombinant human B7H3 and human CD40. Briefly, Human B7H3 CD protein (His-tag) was diluted and coated onto an ELISA plate with a volume of […] by incubation at 4° C. overnight. The next day, the plate was blocked with PBST-BSA buffer, then serially diluted samples of anti-B7H3/CD40 bi-specific antibodies were pipetted into appropriate wells at 50 μL/well, and the plate was incubated for 1 h followed by washing. Human CD40-msFc antibody was added into the plate at 50 μL/well. After 1-hour incubation at room temperature, […] anti-Mouse IgG (H+L) antibody was added into the plate at 100 μL/well. The plate was incubated for 1 hour at room temperature followed by washing. TMB substrate solution was added at 100 p L/well and the color development was stopped by adding 100 uUwell Stop Solution (2N H2SO4). Absorbance at 450 nm and 620 nm was read by Tecan F200 Pro plate reader. GraphPad 7.0, “[Agonist] vs. response—Variable slope (four parameters)” was used to plot the binding data and calculate binding EC50 values.

T1 sequence (P25942 21-193): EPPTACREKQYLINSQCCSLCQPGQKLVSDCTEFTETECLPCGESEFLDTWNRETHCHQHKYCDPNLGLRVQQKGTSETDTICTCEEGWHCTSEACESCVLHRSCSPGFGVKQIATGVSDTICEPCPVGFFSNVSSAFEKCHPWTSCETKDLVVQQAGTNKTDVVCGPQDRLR

Binder | binding result
B1 | binds
B2 | binds
B3 | binds

Each binder was assayed against T2, human CD40 expressed on CHO cells (human, UniProt P25942 21-277) (assay: FACS, CHO cells).
T2 construct: whole, on cells; also used for the reporter cells over-expressing human CD40; also called cellular CD40; CHO-CD40 cells
T2 sequence (P25942 21-277): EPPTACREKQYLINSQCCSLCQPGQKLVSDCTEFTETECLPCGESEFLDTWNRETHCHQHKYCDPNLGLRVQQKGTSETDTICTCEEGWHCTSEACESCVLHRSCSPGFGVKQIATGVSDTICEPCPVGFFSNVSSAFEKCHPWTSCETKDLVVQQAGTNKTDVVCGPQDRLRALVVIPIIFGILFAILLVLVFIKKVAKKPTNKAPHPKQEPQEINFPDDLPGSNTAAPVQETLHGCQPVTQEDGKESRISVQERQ

Binder | binding result
B1 | binds
B2 | binds
B3 | binds
